According to the DeepSol protein solubility set:

Test: soluble on expression in E. coli; label from the status in PepcDB or PDB records

Sequence	soluble on expression in E. coli
MSLENIRNIAVIAHVDHGKTTMVDELLKQSGTFSEREQISERVMDSNDIEKERGITILSKNTAINYKGTKINIIDTPGHADFGGEVERVLKMIDGVLLLVDAQEGVMPQTKFVVKKALSLGLKPIVVINKIDKPAADPERVINEIFDLFVALDANDEQLDFAIVYAAAKNGYAKLDLNDESDNMEPLFKTILERVPAPSGSDENPLQLQVFTLGYDNFVGKIGIARIFNGVVKKNQSVMLAKADGTKVNGRISKLIGFMGLEKMDIEEAGSGDIVAIAGFEALDVGDSVVDPNNPMPLDPLHIEEPTLSIVFSVNDGPLAGTEGKHVTSNKIAERLEAEMKTNIAMKYESTGEGKFKVSGRGELQITILAENMRREGFEFCMGRPEVIVKVEDGVKTEPFEHLVIDVPEEFSGAVIEKLGKRKAEMKTMAPTGDGQTRLEFEIPARGLIGFRSQFLTDTKGEGVMNHSFLEFRPFSGAVEKRNNGALISMENGVALGYSLFNLQERGVLFIEPQTKVYTGMIIGEHSRPNDLDVNPIKGKNLTNVRASGSDDAIKLVPPRKLSLERALEWIEEDELVEVTPVNVRVRKRYLDPTQRKRMEKAKEGHHHHHH	soluble
MSLARTLVIGNKNYSSWSMRPWIALKATGVAFDEVVIPLYTGDADKRRILAFTPAGKVPVLVDGDVTIWDSLAIIEYAAERFPKAQLWPDDVAARAHARSVAAEMHSGFAALRNECGMNIHRPVGAKQLSDAARADIARVQEIWIDCRHRYGRFGPYLFGRFSGVDAMFAPVVHRFRTYAVELDPIAQGYVEVMMALPAFQEWTQAALAETWVIDKFETEGHHHHHH	soluble
MKERILQEIKTRVNRKSWELWFSSFDVKSIEGNKVVFSVGNLFIKEWLEKKYYSVLSKAVKVVLGNDATFEITYEAFEPHSSYSEPLVKKRAVLLTPLNPDYTFENFVVGPGNSFAYHAALEVAKHPGRYNPLFIYGGVGLGKTHLLQSIGNYVVQNEPDLRVMYITSEKFLNDLVDSMKEGKLNEFREKYRKKVDILLIDDVQFLIGKTGVQTELFHTFNELHDSGKQIVICSDREPQKLSEFQDRLVSRFQMGLVAKLEPPDEETRKSIARKMLEIEHGELPEEVLNFVAENVDDNLRRLRGAIIKLLVYKETTGKEVDLKEAILLLKDFIKPNRVKAMDPIDELIEIVAKVTGVPREEILSNSRNVKALTARRIGMYVAKNYLKSSLRTIAEKFNRSHPVVVDSVKKVKDSLLKGNKQLKALIDEVIGEISRRALSGLEHHHHHH	soluble
MVTVRYYATLRPITKKKEETFNGISKISELLERLKVEYGSEFTKQMYDGNNLFKNVIILVNGNNITSMKGLDTEIKDDDKIDLFPPVAGG	soluble
MAHHHHHHMSSATPPLPADSVTASAALRFSVDFDPSRADSKPSVLLLTQNVGGIEAALGTDAGLGETSPECPHSPLPENGGDTSAAFASVPKDFRGPSYIHVPDDIDSELGVSPVVRQQVAEFLADLRQWLHRLSYMSAAVRAAEASATASSAAPASVAGGAPSPPPSPTPCGAAANTEAYMRSYTPSVRPPLIDMVVLHFQEIGGKYKNKHFNEYFKEQIRTSLLPEAGWTSGLLMDERESGDTLSSSSYQRHRATSTVQALRRTSFEGSSTSNNNGNANGHVGDAHRLSDANSNDTDLTAELDADADAYFTAIGSIVFLSPRFMGIASCLSVPHRTYIPIVDDPLTYAGEAGRLFHSGKFAEAGRSRKGFLLLSLRLGTVQFNVCNVHLFNDDDNRVALKSSPSLYTGRRTRAITEAIAECSAVVDLSEPLFIFGDYNVRMDGKSFTEWVEEKMQMTVRAERKRLRCPEQFWELFTNPATQQELRTRFDIEPQHLMDEVALLSSVELAEMPIQFAPTYSRVAYRTRTGATTTSAGADAAALRDVAATPDAQQQIPTLKDLAGRADAIRAEEQEQTEAIRARPSVSTLLAPLASPLASVPLTHVAASPYRDNFCHDRLPAWCDRVMFNVAGLEWISGDRSRTAPPQPQAASSVSGSAASGAGGLKGRQRSGQGCWYAYAAIDFIHMDHDGVFMLF	not soluble
AIADPAEVEFLAEKEMVKIIPNFSLDKIYLIGGDLGPFNPGLPVEVPVWLALNLKQRQKCRIVPPEWMDTDKLEDIREQERKLDTFTPIPNPYYMELTKLLLNHAADNIPKADEIRTLVKDIWDTRMAKLRLSADSFISQQEAHAQLDNLTLMEINTTRSFLLDSLNYMYKLRSNLQPGRSKDY	soluble
KNKKVILFAPTFRGNGHRTAHYPFFKINFARLASYCEEHQATVLFKMHPFVRNKLNIPAIYSKYFLDISNYREVNDVLFITDILISDYSSLIYEFSVFKKPMLFYAFDLEDYIYTRDFYEPYETFVPGKIVKIFDELILALENNDFELEKVKPFLNKNFKYKDGKSSERLVKDLFNKFFQ	not soluble
MSLSDDDVDNVIEVARDSWKWTYKDIYSDEFIENWISEKYSKEKLLNEITKSQLNLDLVFLGSFHESKLIGFIELKISSSKAELLRLYLRPEYTHRGVGRILLSEAEELVKKRDVEECILYVHKKNYIATSFYKKNGFQVKDIYGDDLIMIKRYKVEGHHHHHH	not soluble
KRLQKKIDNGELDSFPEVKEVDVECCGQHEVCERDSLLAAVSKQIEYYDDEELDTFIGRAPEDYTPEEADKFRDVFYTMQDTDVAGWVRSLQLRGISLPDEIKDEVFLVVGERRIH	not soluble
MRPVFPLILSAVLFLSCFFGARQTEASASKRAIDANQIVNRMSLDEKLGQMLMPDFRNWQKEGESSPQALTKMNDEVASLVKKYQFGGIILFAENVKTTKQTVQLTDDYQKASPKIPLMLSIDQEGGIVTRLGEGTNFPGNMALGAARSRINAYQTGSIIGKELSALGINTDFSPVVDINNNPDNPVIGVRSFSSNRELTSRLGLYTMKGLQRQDIASALKHFPGHGDTDVDSHYGLPLVSHGQERLREVELYPFQKAIDAGADMVMTAHVQFPAFDDTTYKSKLDGSDILVPATLSKKVMTGLLRQEMGFNGVIVTDALNMKAIADHFGQEEAVVMAVKAGVDIALMPASVTSLKEEQKFARVIQALKEAVKNGDIPEQQINNSVERIISLKIKRGMYPARNSDSTKEKIAKAKKIVGSKQHLKAEKKLAEKAVTVLKNEQHTLPFKPKKGSRILIVAPYEEQTASIEQTIHDLIKRKKIKPVSLSKMNFASQVFKTEHEKQVKEADYIITGSYVVKNDPVVNDGVIDDTISDSSKWATVFPRAVMKAALQHNKPFVLMSLRNPYDAANFEEAKALIAVYGFKGYANGRYLQPNIPAGVMAIFGQAKPKGTLPVDIPSVTKPGNTLYPLGYGLNIKTGRPL	soluble
DNYNVEGASASFAVGYERGVKQLAEGLLLSIYAELDWAAFRSVSDKRSLPFSDDSAQNRFRFLAGAGVHKRLNPNIELYARGAVGASFFPENNGSSSRELKGGFNVSLRVGLSCSLRDNFAVFIDTGTSDIVRGGLALMW	not soluble
MIIQIEEYFIGMIFKGNQLVRNTIPLRREEIFNFMDGEVVSNPEDEHLKVAEIILKLYFAEIDDKKVRELISYKLEVPEFTKKVLDIVKDIEFGKTLTYGDIAKKLNTSPRAVGMALKRNPLPLIIPCHRVVAKNSLGGYSYGLDKKKFILERERLNMVSFKFNKVY	soluble
GSQDVKCSLGYFPCGNITKCLPQLLHCNGVDDCGNQADEDNCG	soluble
MTRPVTLSEPHFSQHTLNKYASLMAQGNGYLGLRASHEEDYTRQTRGMYLAGLYHRAGKGEINELVNLPDILGMEIAINGEVFSLSREAWQRELDFASGELRRSVVWRTSNGAGYTIASRRFVSADQLPLIALEITIMPLDADASVLISTGIDATQTNHGRQHLDETQVRVFGQHLMQGIYTTQDGRSDVAISCCCQVSGDVQQCYTAKERRLLQHTSTQLHAGETVTLQKLVWIDWRDDRQAALDEWGSVSLRQLEMCAQQSYDQHLAASTENWRQWWQKRRITVNGGDAHDQQALDYALYHLRIMTPAHGERSSIAAKGLTGEGYKGHVFWDTEVFLLPFHLFSDPTVARSLLRYRWHNLPGAQEKARRNGWQGALFPWESARSGEEETPEFAAINIRTGLRQKVASAQAEHHLVADIAWAVIQYWQTTGDESFIAHEGMALLLETAKFWISRAVRVNDRLEIHDVIGPDEYTEHVNNNAFTSYMVYYNVQQALSIARQFGCSDDAFIHRAEMFLKELRLPEIQPDGVLPQDDSFMTKPAINLAKYKAAAGKQTILLDYSRAEVNEMQILKQADVVMLNYMLPEQFSSASCLANLQFYEPRTIHDSSLSKAIHGIVAARCGLLTQSYQFWREGTEIDLGADPHSCDDGIHAAATGAIWLGAIQGFAGVSVRDGELHLNPALLEQWQQLSFPLFWQGCELQVTLDAQRIAIRTSAPVSLRLDGQLISVAEESVFCLGDFILPFNGTATTHQEDE	not soluble
MDSNEIIKRVRERVYREVKKKYTRDDLDTRIQDVLYYRSETYMKLVSFANGKRIKKLADPRKFEKFMDTKGVKIVAEVLDGLNNQPKMQAMEYEQKVLTKVRQWYQKKNHPELVDLEEEAFEQLVEKNIIYKKMKKRLYEEQDNQGFVYSDNFDMQLIRDSCDIEEALYLDITLGDY	not soluble
MTSSTETTSTTPQVAVNDIGNEEAFLAAIDETIKYFNDGDIVDGVIVKVDRDEVLLDIGYKTEGVIPSRELSIKHDVDPNEVVKVGDEIEALVLQKEDKEGRLILSKKRAQYERAWGTIEKIKEEDGIVTGTVIEVVKGGLILDIGLRGFLPASLVEMRRVRDLQPYVGKELEAKIIELDKNRNNVVLSRRAWLEQTQSEVRQTFLTTLQKGQVRSGVVSSIVNFGAFVDLGGVDGLVHVSELSWKHIDHPSEVVEVGQEVTVEVLDVDMDRERVSLSLKATQEDPWQQFARTHQIGQVVPGKVTKLVPFGAFVRVDEGIEGLVHISELAERHVEIPEQVVQVNDEIFVKVIDIDLERRRISLSLKQANEAFGGDPASVEFDPTLYGMAASYDDQGNYIYPEGFDPETNDWLEGFESQREVWETQYAEAQQRFEQHQAQVIKSREADAQAEAEGAAAPAAGGSGAGVSGGSYSSESDDNSGALASDEALAALREKLAGGQSLEHHHHHH	soluble
MKVFTFLLIIMVCLYNFGVRAAMDNSKHSDEAEKLLAELSARKGEGEGEGEGEGEGEGEGEPKSTVSVFYLQPEEVNTLSHQAKRGDGEAGFRLFLYYKLSNYDEEKSSQWLKIAANNGHATAQYRLYVELQEQGETKEANEWLQKIKLAASNNDSSAIWFLVNCYKNQGNKKEALQWAYKLKASKQPLDADRLIEELTKEQK	soluble
MDNLVWDGIPDIRTLDQTIRKHAHPLNLIVCLPDNQIPDFQTAQDASDSECRLKHRLDQATQCLQFDSINLIEHILPDVRFWLVPPSRTRRLHEHFHHISWQTEAIPQTESKSDKPWFALPQTSERKKPEHVLVIGAGIAGASTAHALASHGISVTVLEARKAAQAASGNRQGLLYAKISPHDTGQTELLLAGYGYTKRLLGHILPDSDTWGGNGIIHLNYSRTEQQRNHELGLQKHHNHLYRSITSAEAEKIAGIPLNTPYAEPLCGLYWQHGVWLNPPAFVRTLLSHPLIELYENTTLTGISHDGEKWIASTPNGTFTATHIIYCTGAHSPCLPETNLAALPLRQIRGQTGLTPSTPFSEQLRCAVSGESYISPSWHGLHCYGASFIPNSSNTGWNEAEEASNRQALAHLNPALAESLFAANPNPQKHQGHAAIRCDSPDHLPVVGALGDIAAMRQTYAKLALDKNYRIDTTCPYLPNAYTNTAHGTRGLATAPICAAAVAAEILGLPHLFSQRLRHALHPNRTVIRAIVRRQNLIPLEHHHHHH	soluble
